According to IntAct's records for PubMed 18997771:

B1: Vascular endothelial growth factor receptor 2 (Mus musculus), P35918 (parent)
chain: MESKALLAVALWFCVETRAASVGLPGDFLHPPKLSTQKDILTILANTTLQITCRGQRDLDWLWPNAQRDSEERVLVTECGGGDSIFCKTLTIPRVVGNDTGAYKCSYRDVDIASTVYVYVRDYRSPFIASVSDQHGIVYITENKNKTVVIPCRGSISNLNVSLCARYPEKRFVPDGNRISWDSEIGFTLPSYMISYAGMVFCEAKINDETYQSIMYIVVVVGYRIYDVILSPPHEIELSAGEKLVLNCTARTELNVGLDFTWHSPPSKSHHKKIVNRDVKPFPGTVAKMFLSTLTIESVTKSDQGEYTCVASSGRMIKRNRTFVRVHTKPFIAFGSGMKSLVEATVGSQVRIPVKYLSYPAPDIKWYRNGRPIESNYTMIVGDELTIMEVTERDAGNYTVILTNPISMEKQSHMVSLVVNVPPQIGEKALISPMDSYQYGTMQTLTCTVYANPPLHHIQWYWQLEEACSYRPGQTSPYACKEWRHVEDFQGGNKIEVTKNQYALIEGKNKTVSTLVIQAANVSALYKCEAINKAGRGERVISFHVIRGPEITVQPAAQPTEQESVSLLCTADRNTFENLTWYKLGSQATSVHMGESLTPVCKNLDALWKLNGTMFSNSTNDILIVAFQNASLQDQGDYVCSAQDKKTKKRHCLVKQLIILERMAPMITGNLENQTTTIGETIEVTCPASGNPTPHITWFKDNETLVEDSGIVLRDGNRNLTIRRVRKEDGGLYTCQACNVLGCARAETLFIIEGAQEKTNLEVIILVGTAVIAMFFWLLLVIVLRTVKRANEGELKTGYLSIVMDPDELPLDERCERLPYDASKWEFPRDRLKLGKPLGRGAFGQVIEADAFGIDKTATCKTVAVKMLKEGATHSEHRALMSELKILIHIGHHLNVVNLLGACTKPGGPLMVIVEFCKFGNLSTYLRGKRNEFVPYKSKGARFRQGKDYVGELSVDLKRRLDSITSSQSSASSGFVEEKSLSDVEEEEASEELYKDFLTLEHLICYSFQVAKGMEFLASRKCIHRDLAARNILLSEKNVVKICDFGLARDIYKDPDYVRKGDARLPLKWMAPETIFDRVYTIQSDVWSFGVLLWEIFSLGASPYPGVKIDEEFCRRLKEGTRMRAPDYTTPEMYQTMLDCWHEDPNQRPSFSELVEHLGNLLQANAQQDGKDYIVLPMSETLSMEEDSGLSLPTSPVSCMEEEEVCDPKFHYDNTAGISHYLQNSKRKSRPVSVKTFEDIPLEEPEVKVIPDDSQTDSGMVLASEELKTLEDRNKLSPSFGGMMPSKSRESVASEGSNQTSGYQSGYHSDDTDTTVYSSDEAGLLKMVDAAVHADSGTTLRSPPV

Variants of: B1
Details: with pgfrb_human PDGFRB

effect of a mutation on the interaction	Variant
disrupting interaction	Y1052F;Y1057F
